The values that follow come from IntAct's records for PubMed 10613896.

The chains are these.
B1: Arf-GAP domain and FG repeat-containing protein 1 (Homo sapiens), P52594 (parent)
chain: MAASAKRKQEEKHLKMLRDMTGLPHNRKCFDCDQRGPTYVNMTVGSFVCTSCSGSLRGLNPPHRVKSISMTTFTQQEIEFLQKHGNEVCKQIWLGLFDDRSSAIPDFRDPQKVKEFLQEKYEKKRWYVPPEQAKVVASVHASISGSSASSTSSTPEVKPLKSLLGDSAPTLHLNKGTPSQSPVVGRSQGQQQEKKQFDLLSDLGSDIFAAPAPQSTATANFANFAHFNSHAAQNSANADFANFDAFGQSSGSSNFGGFPTASHSPFQPQTTGGSAASVNANFAHFDNFPKSSSADFGTFNTSQSHQTASAVSKVSTNKAGLQTADKYAALANLDNIFSAGQGGDQGSGFGTTGKAPVGSVVSVPSQSSASSDKYAALAELDSVFSSAATSSNAYTSTSNASSNVFGTVPVVASAQTQPASSSVPAPFGATPSTNPFVAAAGPSVASSTNPFQTNARGATAATFGTASMSMPTGFGTPAPYSLPTSFSGSFQQPAFPAQAAFPQQTAFSQQPNGAGFAAFGQTKPVVTPFGQVAAAGVSSNPFMTGAPTGQFPTGSSSTNPFL
partner: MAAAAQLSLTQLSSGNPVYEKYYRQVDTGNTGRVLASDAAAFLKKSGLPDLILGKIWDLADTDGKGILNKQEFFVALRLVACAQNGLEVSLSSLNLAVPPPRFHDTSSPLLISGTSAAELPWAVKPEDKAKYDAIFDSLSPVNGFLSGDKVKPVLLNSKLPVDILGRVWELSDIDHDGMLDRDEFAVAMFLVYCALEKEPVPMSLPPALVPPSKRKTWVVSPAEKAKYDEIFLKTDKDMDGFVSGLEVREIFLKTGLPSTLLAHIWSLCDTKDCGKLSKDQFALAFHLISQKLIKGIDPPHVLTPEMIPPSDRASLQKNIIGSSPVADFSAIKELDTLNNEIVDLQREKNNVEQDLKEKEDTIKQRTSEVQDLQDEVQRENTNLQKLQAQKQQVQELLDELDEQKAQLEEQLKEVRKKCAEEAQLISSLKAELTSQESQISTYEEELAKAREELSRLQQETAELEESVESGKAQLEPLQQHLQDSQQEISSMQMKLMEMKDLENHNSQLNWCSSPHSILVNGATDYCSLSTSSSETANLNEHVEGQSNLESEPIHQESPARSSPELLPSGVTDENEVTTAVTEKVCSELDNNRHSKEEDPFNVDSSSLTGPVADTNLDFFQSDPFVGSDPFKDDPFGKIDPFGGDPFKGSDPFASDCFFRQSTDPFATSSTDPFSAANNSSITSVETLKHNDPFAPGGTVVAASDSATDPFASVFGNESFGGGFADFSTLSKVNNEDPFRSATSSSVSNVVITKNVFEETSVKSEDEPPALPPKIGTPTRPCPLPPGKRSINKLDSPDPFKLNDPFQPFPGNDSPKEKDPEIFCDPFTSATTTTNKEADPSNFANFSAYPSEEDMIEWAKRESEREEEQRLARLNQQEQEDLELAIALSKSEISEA

The variants in the test derive from B1. The conditions noted are these: with eps15_human EPS15, P42566.
Consider F436V;F451V;F542V;F561V, for which the “effect of a mutation on the interaction” value is “disrupting interaction”.
